Data as given in publication PMC2175199 (The Journal of Cell Biology, 2000).

T1: XSA2 (Xenopus laevis (endogenous in egg …, UniProt Q9DGN0 1-1194))
T1 sequence: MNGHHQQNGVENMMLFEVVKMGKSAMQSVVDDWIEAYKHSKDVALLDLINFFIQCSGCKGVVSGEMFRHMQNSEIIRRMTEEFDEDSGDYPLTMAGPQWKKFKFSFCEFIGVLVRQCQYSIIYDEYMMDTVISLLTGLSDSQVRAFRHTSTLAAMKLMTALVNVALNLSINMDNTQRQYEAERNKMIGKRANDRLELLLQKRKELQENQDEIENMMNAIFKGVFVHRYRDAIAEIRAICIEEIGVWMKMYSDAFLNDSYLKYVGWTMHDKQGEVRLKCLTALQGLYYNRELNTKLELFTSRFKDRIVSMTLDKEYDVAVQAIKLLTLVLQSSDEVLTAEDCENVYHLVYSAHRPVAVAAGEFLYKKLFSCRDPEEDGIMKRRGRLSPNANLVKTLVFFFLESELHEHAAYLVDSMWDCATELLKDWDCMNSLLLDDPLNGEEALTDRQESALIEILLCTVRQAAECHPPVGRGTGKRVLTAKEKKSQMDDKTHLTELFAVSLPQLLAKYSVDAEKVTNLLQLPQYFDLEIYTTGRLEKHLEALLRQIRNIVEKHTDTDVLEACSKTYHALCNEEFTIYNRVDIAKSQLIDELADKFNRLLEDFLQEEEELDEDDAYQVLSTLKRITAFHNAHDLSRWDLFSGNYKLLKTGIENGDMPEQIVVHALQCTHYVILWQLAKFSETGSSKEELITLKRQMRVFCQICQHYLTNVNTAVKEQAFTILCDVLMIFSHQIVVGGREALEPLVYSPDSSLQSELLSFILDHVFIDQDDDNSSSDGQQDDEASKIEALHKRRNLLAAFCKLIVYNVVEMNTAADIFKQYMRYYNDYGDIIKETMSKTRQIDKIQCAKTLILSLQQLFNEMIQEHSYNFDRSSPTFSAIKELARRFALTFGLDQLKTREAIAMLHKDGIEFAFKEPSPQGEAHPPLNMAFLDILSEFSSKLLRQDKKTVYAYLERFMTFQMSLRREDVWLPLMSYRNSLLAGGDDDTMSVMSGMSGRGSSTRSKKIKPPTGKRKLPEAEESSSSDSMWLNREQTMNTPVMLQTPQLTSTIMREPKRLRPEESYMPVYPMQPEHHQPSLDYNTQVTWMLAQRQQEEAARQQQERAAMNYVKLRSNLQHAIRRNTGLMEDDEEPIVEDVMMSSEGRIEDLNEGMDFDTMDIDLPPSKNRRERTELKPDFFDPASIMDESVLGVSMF

B1: XSMC3 (natural protein)
chain: MYIKQVIIQGFRSYRDQTIVDPFSSKHNVIVGRNGSGKSNFFYAIQFVLSDEFSHLRPEQRLALLHEGTGPRVISAFVEIIFDNSDNRLPIDKEEVSLRRVIGAKKDQYFLDKKMVTKNDVMNLLESAGFSRSNPYYIVKQGKINQMATAPDSQRLKLLREVAGTRVYDERKEESISLMKETEGKRDKINELLKYIEERLHTLEEEKEELAQYQKWDKMRRALEYTIYNQELNETRAKLDELSSKRETSGEKSRQLRDAQQDARDKMEEIERQVRELKSKISAMKEEKEQLSSERQEQIKQRTKLELKTKDLQDELAGNSEQRKRLLKERQKLLEKIEEKQKELAETEPKFSSVKQKEESGIARLAQATQERTDLYAKQGRGSQFTSKEERDKWIKKELKSLDQAINDKKRQIAAINKDLEETEVNKEKNLEQYTKLDQDLNEVKTRVEELDKKYYEVKNKKDELQSERNYLWREENAEQQSLAAKREDLEKKQQLLRAATGKAILNGIDSINKVLEHFRRKGINQHVINGYHGIVMNNFDCEPAFYTCVEVTAGNRLFYHIVESDEVSTKILMEFNKMNLPGEVTFLPLNKLDVRDTAYPETNDAIPMISKLRYNLRFDKAFKHVFGKTLICRSMEVSTQLARAFTMDCITLEGDQVSHRGALTGGYYDTRKSRLELQKDVRKVEDELHALEAKLNENLRRNIERINNEIDQLMNQMQQIETQQRKFKASRDSILSEMKMLKEKRQQSEKTFMPKQRSLQSLEASLHAMESTRESLKAELGTDLLSQLSLEDQKRVDALNDEIRQLQQENRQLLNERIKLEGTITRVETYLNENLRKRLDQVEQELNELRETEGGTVLTATTSELEAINKRVKDTLARSEGLDITIDKTEVESKDLVKSMDRWKNMEKDHMDAINHDTKELEKMTNRQGMLLKKKEECMKKIRELGSLPQEAFEKYQTLSLKQLFRKLEQCNTELKKYSHVNKKALDQFVNFSEQKEKLIKRQEELDRGHKSIMELMNVLELRKYEAIQLTFKQVSKNFSEVFQKLVPGGKATLVMKKGDVEGSQSQDEGEGSTQSSVPSVDQFTGVGIRVSFTGKQAEMREMQQLSGGQKSLVALALIFAIQKCDPAPFYLFDEIDQALDAQHRKAVSDMIMELASHAQFITTTFRPELLESADKFYGVKFRNKVSHIDVITAEQAKDFVEDDTTHG
B2: XSMC1 (natural protein)
chain: MGFLKLIEIENFKSYKGRQIIGPFHRFTAIIGPNGSGKSNLMDAISFVLGEKTSNLRVKTLRDLIHGAPVGKPAANRAFVSMVYSEDSGEEKVFSRVIVGGSSEYKINNKVVQLSEYSDSLEKLGILIKARNFLVFQGAVESIAMKNPKERTALFEEISRSGELAQEYDKRKKEMVKAEEDTQFNYHRKKNIAAERKEAKQEKEEAERYQRLKDEVARAQIQLQLFKLYHNESEIEKLNKELSVKNKGIEKDKKHMDKVEEELKDKKKELGKMMREQQAIEKEIKEKDAELNQKLPQYIKAKENPSHKIKKFRAAKKSLQNAQKQYKKRKADMDELEKEMLSVEKARQEFEERMEEESQSQGRDLTLEENQVKKYHRLKEEASKRAATLAQELEKFNRDQKADQDRLDLEERKKVETEAKIKQKLRELEENQKRIEKLEEYIATSKQSLEEQKNLEETLTEEVEMAKRRIDEINSELNQVMEQLGDARIDRQESSRQQRKAEIMESIKRLYPGSVYGRLIDLCQPTQKKYQIAVTKVLGKNMDAIIVDSEKTGRDCIQYIKEQRGEPETFLPLDYLEVKPTDERLRELKGAKLVIDVIRYEPPHIKKALQYACGNALVCDNVEDARRIAFGGHQRHKTVALDGTLFQKSGVISGGASDLKAKARRWDEKAVDKLKEKKERLTEELKEQMKAKRKEAELRQVQSQAHGLQMRLKYSQSDLEQTKTRHLAMNMQEKSKLESELANFSPRINDIKRIIQSRDREMKDLKEKMNQVEDEVFEEFCREIGVRNIREFEEEKVKRQNEIAKKRLEFENQKTRLGIQLDYEKNQLKEDQGKVQTWEQSVKKDDNEIEKLKKEEQRHMKIIDETMAQLQDLKNQHLAKKSEVNDKNHLMEDIRKKLGSANKEVTHLQKEVTAIETKLEQKRSDRHNLLQACKMSDIKLPLSKGTMDDISQEEGSSQGEESASSSQRSSTVYAKEALIEIDYSDLSEDLKDAVADDDIKQEMSALHQKINEQQSILQRISAPNMKAMEKLESVRDKFQETSDEFEAARKRAKKAKQAFEQTKKERFDRFNACFESVATNIDEIYKALSRNSSAQAFLGPENPEEPYLDGINYNCVAPGKRFRPMDNLSGGEKTVAALALLFAIHSYKPSPFFVLDEIDAALDNTNIGKVANYIKEQSMSNFQAIVISLKEEFYTKAESLIGVYPEQGDCVISKVLTFDLTKYPDANPNPND

Biological target: T1, XSA2
Assay: co-IP

| Binder | percent depleted from the extract by anti-XSA2 |
| --- | --- |
| B1 | ~5% |
| B2 | ~5% |
